The values below come from patent US20240400701A1 (LANOVA MEDICINES DEVELOPMENT, published 2024).

One may read the EC50 as the concentration at which the effect is half-maximal. A lower EC50 goes with a more potent agent.

The labels stand for the following.
T1: human AMHRII (anti-Mullerian hormone receptor type 2) (human, UniProt Q16671 18-573)
T1 construct: whole, on cells; also called AMHR2; human AMHR2
T1 sequence (looked up): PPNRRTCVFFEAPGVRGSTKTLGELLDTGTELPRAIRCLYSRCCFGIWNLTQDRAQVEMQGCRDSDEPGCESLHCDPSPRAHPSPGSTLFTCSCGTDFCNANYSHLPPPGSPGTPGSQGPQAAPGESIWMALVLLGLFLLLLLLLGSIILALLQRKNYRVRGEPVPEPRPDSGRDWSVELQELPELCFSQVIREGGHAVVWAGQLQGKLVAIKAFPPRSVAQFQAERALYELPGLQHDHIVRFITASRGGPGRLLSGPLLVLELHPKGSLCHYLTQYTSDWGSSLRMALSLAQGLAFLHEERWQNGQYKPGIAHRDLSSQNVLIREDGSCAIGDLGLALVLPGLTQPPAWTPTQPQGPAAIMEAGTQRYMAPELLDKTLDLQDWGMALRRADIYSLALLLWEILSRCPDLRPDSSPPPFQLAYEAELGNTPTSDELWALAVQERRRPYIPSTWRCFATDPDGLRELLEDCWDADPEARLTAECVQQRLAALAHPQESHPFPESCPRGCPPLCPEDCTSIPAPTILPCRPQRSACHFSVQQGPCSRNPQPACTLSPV

B1: 108F3D1E9 H2L2 hIgG1 (antibody, V domains shown)
VH: QLQLQESGPGLVKPSETLSLTCTVSGYSITSDFAWNWIRQPPGKGLEWMGYISFSGSTSYNPSLKSRVTISRDTSKNQFSLKLSSVTAADTAVYYCAGSRYSWFAYWGQGTLVTVSS
VL: DIQLTQSPSSLSASVGDRVTITCRASESVDTYGNSFMHWYQQKPGKPPKLLIYRASNLESGIPSRFSGSGSGTDFTLTISSLQPEDFATYYCQQSNEDPYTFGGGTKVEIK
notes: Humanized, human IgG1; also called 108F3D1E9 H2L2 hlgG1
B2: 94C4C3 H2L2 hIgG1 (antibody, V domains shown)
VH: QLQLQESGPGLVKPSETLSLTCTVSGYSITSDYAWNWIRQPPGKGLEWMGYISYSGSISYNPSLKSRITISRDTSKNQFSLKLSSVTAADTAVYYCARSRYSWFDYWGQGTLVTVSS
VL: EIVLTQSPGTLSLSPGERATLSCSASESVDTYGNSFMHWYQQKPGQPPRLLIYRASSLESGIPVRFSGSGSRTDFTLTISRLEPEDFAVYYCQQSNEDPYTFGGGTKVEIK
notes: Humanized, human IgG1; also called 94C4C3 H2L2 hlgG1
B3: 108F3D1E9 H2L3 hIgG1 (antibody, V domains shown)
VH: QLQLQESGPGLVKPSETLSLTCTVSGYSITSDFAWNWIRQPPGKGLEWMGYISFSGSTSYNPSLKSRVTISRDTSKNQFSLKLSSVTAADTAVYYCAGSRYSWFAYWGQGTLVTVSS
VL: DIVLTQSPSSLSASVGDRVTITCRASESVDTYGNSFMHWYQQKPGQPPKLLIYRASNLESGIPARFSGSGSGTDFTLTISSVQPEDFATYYCQQSNEDPYTFGGGTKVEIK
notes: Humanized, human IgG1; also called 108F3D1E9 H2L3 hlgG1
B4: 94C4C3 H1L4 hIgG1 (antibody, V domains shown)
VH: QLQLQESGPGLVKPSETLSLTCTVSGYSITSDYAWNWIRQPPGKGLEWIGYISYSGSISYNPSLKSRVTISVDTSKNQFSLKLSSVTAADTAVYYCARSRYSWFDYWGQGTLVTVSS
VL: DIVLTQSPGTLSVSPGERATLSCSASESVDTYGNSFMHWYQQKPGQPPKLLIYRASSLESGIPVRFSGSGSRTDFTLTISRVEAEDFAVYYCQQSNEDPYTFGGGTKLEIK
notes: Humanized, human IgG1; also called 94C4C3 H1L4 hlgG1
B5: 94C4C3 H1L2 hIgG1 (antibody, V domains shown)
VH: QLQLQESGPGLVKPSETLSLTCTVSGYSITSDYAWNWIRQPPGKGLEWIGYISYSGSISYNPSLKSRVTISVDTSKNQFSLKLSSVTAADTAVYYCARSRYSWFDYWGQGTLVTVSS
VL: EIVLTQSPGTLSLSPGERATLSCSASESVDTYGNSFMHWYQQKPGQPPRLLIYRASSLESGIPVRFSGSGSRTDFTLTISRLEPEDFAVYYCQQSNEDPYTFGGGTKVEIK
notes: Humanized, human IgG1; also called 94C4C3 H1L2 hlgG1
B6: 108F3D1E9 H1L3 hIgG1 (antibody, V domains shown)
VH: QLQLQESGPGLVKPSETLSLTCTVSGYSITSDFAWNWIRQPPGKGLEWIGYISFSGSTSYNPSLKSRVTISVDTSKNQFSLKLSSVTAADTAVYYCARSRYSWFAYWGQGTLVTVSS
VL: DIVLTQSPSSLSASVGDRVTITCRASESVDTYGNSFMHWYQQKPGQPPKLLIYRASNLESGIPARFSGSGSGTDFTLTISSVQPEDFATYYCQQSNEDPYTFGGGTKVEIK
notes: Humanized, human IgG1; also called 108F3D1E9 H1L3 hlgG1
B7: 108F3D1E9 H2L1 hIgG1 (antibody, V domains shown)
VH: QLQLQESGPGLVKPSETLSLTCTVSGYSITSDFAWNWIRQPPGKGLEWMGYISFSGSTSYNPSLKSRVTISRDTSKNQFSLKLSSVTAADTAVYYCAGSRYSWFAYWGQGTLVTVSS
VL: DIQMTQSPSSLSASVGDRVTITCRASESVDTYGNSFMHWYQQKPGKAPKLLIYRASNLESGVPSRFSGSGSGTDFTLTISSLQPEDFATYYCQQSNEDPYTFGGGTKVEIK
notes: Humanized, human IgG1; also called 108F3D1E9 H2L1 hlgG1
B8: 108F3D1E9 H1L4 hIgG1 (antibody, V domains shown)
VH: QLQLQESGPGLVKPSETLSLTCTVSGYSITSDFAWNWIRQPPGKGLEWIGYISFSGSTSYNPSLKSRVTISVDTSKNQFSLKLSSVTAADTAVYYCARSRYSWFAYWGQGTLVTVSS
VL: DIVLTQSPSSLSVSVGDRATITCRASESVDTYGNSFMHWYQQKPGQPPKLLIYRASNLESGIPARFSGSGSRTDFTLTISSVQPEDFATYYCQQSNEDPYTFGGGTKLEIK
notes: Humanized, human IgG1; also called 108F3D1E9 H1L4 hlgG1
B9: 108F3D1E9 H2L4 hIgG1 (antibody, V domains shown)
VH: QLQLQESGPGLVKPSETLSLTCTVSGYSITSDFAWNWIRQPPGKGLEWMGYISFSGSTSYNPSLKSRVTISRDTSKNQFSLKLSSVTAADTAVYYCAGSRYSWFAYWGQGTLVTVSS
VL: DIVLTQSPSSLSVSVGDRATITCRASESVDTYGNSFMHWYQQKPGQPPKLLIYRASNLESGIPARFSGSGSRTDFTLTISSVQPEDFATYYCQQSNEDPYTFGGGTKLEIK
notes: Humanized, human IgG1; also called 108F3D1E9 H2L4 hlgG1
B10: 108F3D1E9 H1L2 hIgG1 (antibody, V domains shown)
VH: QLQLQESGPGLVKPSETLSLTCTVSGYSITSDFAWNWIRQPPGKGLEWIGYISFSGSTSYNPSLKSRVTISVDTSKNQFSLKLSSVTAADTAVYYCARSRYSWFAYWGQGTLVTVSS
VL: DIQLTQSPSSLSASVGDRVTITCRASESVDTYGNSFMHWYQQKPGKPPKLLIYRASNLESGIPSRFSGSGSGTDFTLTISSLQPEDFATYYCQQSNEDPYTFGGGTKVEIK
notes: Humanized, human IgG1; also called 108F3D1E9 H1L2 hlgG1
B11: 94C4C3 H1L3 hIgG1 (antibody, V domains shown)
VH: QLQLQESGPGLVKPSETLSLTCTVSGYSITSDYAWNWIRQPPGKGLEWIGYISYSGSISYNPSLKSRVTISVDTSKNQFSLKLSSVTAADTAVYYCARSRYSWFDYWGQGTLVTVSS
VL: EIVLTQSPGTLSLSPGERATLSCSASESVDTYGNSFMHWYQQKPGQPPRLLIYRASSLESGIPVRFSGSGSRTDFTLTISRVEAEDFAVYYCQQSNEDPYTFGGGTKLEIK
notes: Humanized, human IgG1; also called 94C4C3 H1L3 hlgG1
B12: 31D9B3 VH1-VL2.1 hIgG1 (antibody, V domains shown)
VH: QVQLVQSGAEVKKPGASVKVSCKASGYTFTDYWVSWVRQAPGQGLEWMGEIYPKNGVSNFNEKFKGRVTMTTDTSTSTAYMELRSLRSDDTAVYYCARQRDYWGQGTLVTVSS
VL: DVVMTQSPLSLPVTLGQPASISCRSSQSLEYGSGYTYLEWYLQRPGQSPRLLIYGVSNRFSGVPDRFSGSGSGTDFTLKISRVEAEDVGVYYCFQATHDPNTFGQGTKLEIK
notes: Humanized, PTM de-risked (VL D(30C)S), human IgG1; also called 31D9B3 VH1-VL2.1 hlgG1
B13: 31D9B3 VH1.1-VL2.1 hIgG1 (antibody, V domains shown)
VH: QVQLVQSGAEVKKPGASVKVSCKASGYTFTDYWVSWVRQAPGQGLEWMGEIYPKEGVSNFNEKFKGRVTMTTDTSTSTAYMELRSLRSDDTAVYYCARQRDYWGQGTLVTVSS
VL: DVVMTQSPLSLPVTLGQPASISCRSSQSLEYGSGYTYLEWYLQRPGQSPRLLIYGVSNRFSGVPDRFSGSGSGTDFTLKISRVEAEDVGVYYCFQATHDPNTFGQGTKLEIK
notes: Humanized, PTM de-risked, human IgG1; also called 31D9B3 VH1.1-VL2.1 hlgG1
B14: 31D9B3 VH1.1-VL2.2 hIgG1 (antibody, V domains shown)
VH: QVQLVQSGAEVKKPGASVKVSCKASGYTFTDYWVSWVRQAPGQGLEWMGEIYPKEGVSNFNEKFKGRVTMTTDTSTSTAYMELRSLRSDDTAVYYCARQRDYWGQGTLVTVSS
VL: DVVMTQSPLSLPVTLGQPASISCRSSQSLEYGDRYTYLEWYLQRPGQSPRLLIYGVSNRFSGVPDRFSGSGSGTDFTLKISRVEAEDVGVYYCFQATHDPNTFGQGTKLEIK
notes: Humanized, PTM de-risked, human IgG1; also called 31D9B3 VH1.1-VL2.2 hlgG1
B15: 31D9B3 VH1.1-VL2 hIgG1 (antibody, V domains shown)
VH: QVQLVQSGAEVKKPGASVKVSCKASGYTFTDYWVSWVRQAPGQGLEWMGEIYPKEGVSNFNEKFKGRVTMTTDTSTSTAYMELRSLRSDDTAVYYCARQRDYWGQGTLVTVSS
VL: DVVMTQSPLSLPVTLGQPASISCRSSQSLEYGDGYTYLEWYLQRPGQSPRLLIYGVSNRFSGVPDRFSGSGSGTDFTLKISRVEAEDVGVYYCFQATHDPNTFGQGTKLEIK
notes: Humanized, PTM de-risked (VH N54E), human IgG1; also called 31D9B3 VH1.1-VL2 hlgG1
B16: 31D9B3 VH1-VL2.3 hIgG1 (antibody, V domains shown)
VH: QVQLVQSGAEVKKPGASVKVSCKASGYTFTDYWVSWVRQAPGQGLEWMGEIYPKNGVSNFNEKFKGRVTMTTDTSTSTAYMELRSLRSDDTAVYYCARQRDYWGQGTLVTVSS
VL: DVVMTQSPLSLPVTLGQPASISCRSSQSLEYGTGYTYLEWYLQRPGQSPRLLIYGVSNRFSGVPDRFSGSGSGTDFTLKISRVEAEDVGVYYCFQATHDPNTFGQGTKLEIK
notes: Humanized, PTM de-risked (VL D(30C)T), human IgG1; also called 31D9B3 VH1-VL2.3 hlgG1
B17: 31D9B3 VH1.1-VL2.3 hIgG1 (antibody, V domains shown)
VH: QVQLVQSGAEVKKPGASVKVSCKASGYTFTDYWVSWVRQAPGQGLEWMGEIYPKEGVSNFNEKFKGRVTMTTDTSTSTAYMELRSLRSDDTAVYYCARQRDYWGQGTLVTVSS
VL: DVVMTQSPLSLPVTLGQPASISCRSSQSLEYGTGYTYLEWYLQRPGQSPRLLIYGVSNRFSGVPDRFSGSGSGTDFTLKISRVEAEDVGVYYCFQATHDPNTFGQGTKLEIK
notes: Humanized, PTM de-risked, human IgG1; also called 31D9B3 VH1.1-VL2.3 hlgG1

The assay concerns the target T1, human AMHRII (anti-Mullerian hormone …). Put plainly: FACS on CHO-K1 cells over-expressing human AMHR2. The protocol:
CHO-K1 cells over-expressed AMHR2 were harvested from flasks. 100 μl of 1×10⁶ cells/ml of cells were incubated with the humanized antibodies in 3-fold serial dilutions starting from 300 nM to 0.001 nM for 30 minutes on ice. After being washed with 200 μl of FACS buffer twice, cells were incubated with secondary antibody for 30 minutes on ice. Cells were washed with 200 μl of FACS buffer twice and analyzed by FACS.
In the case of B1, the half-maximal effective concentration (EC50) is 0.68 nM and the “Top (MFI)” value worked out at 67900 MFI.

With B2, a half-maximal effect (EC50) was put at 1.42 nM and the “Top (MFI)” value was 56600 MFI.

Turning to B3, the EC50 is 0.74 nM and the “Top (MFI)” value was found to be 67300 MFI.

As to B4, a half-maximal response (EC50) required 1.21 nM and the “Top (MFI)” value was determined as 47200 MFI.

Take B5: the EC50 was 1.46 nM and the “Top (MFI)” value worked out at 49600 MFI.

Regarding B6, the EC50 stood at 0.82 nM and the “Top (MFI)” value was found to be 66700 MFI.

In the case of B7, the EC50 worked out at 0.55 nM and the “Top (MFI)” value amounted to 64400 MFI.

As to B8, the EC50 was determined as 0.88 nM and the “Top (MFI)” value was determined as 70900 MFI.

Turning to B9, it took 0.65 nM to reach a half-maximal effect (EC50) and the “Top (MFI)” value worked out at 70600 MFI.

For the molecule B10, it took 0.82 nM to reach a half-maximal effect (EC50) and the “Top (MFI)” value is 64600 MFI.

On to B11, for which the EC50 stood at 1.45 nM and the “Top (MFI)” value amounted to 50200 MFI.

For the molecule B12, the concentration giving a half-maximal response (EC50) is 5.52 nM and the “Top (MFI)” value worked out at 10400 MFI.

In the case of B13, the half-maximal effective concentration (EC50) is 89.7 nM and the “Top (MFI)” value stood at 2170 MFI.

Take B14: a half-maximal response (EC50) required 0.625 nM and the “Top (MFI)” value was determined as 14500 MFI.

Turning to B15, the EC50 was determined as 0.875 nM and the “Top (MFI)” value worked out at 16800 MFI.

In the case of B16, it took 0.331 nM to reach a half-maximal effect (EC50) and the “Top (MFI)” value turned out to be 12500 MFI.

In the case of B17, the EC50 was 145 nM and the “Top (MFI)” value was 6580 MFI.
